From paper PMC5071727, “A Structure‐Guided Switch in the Regioselectivity of a Tryptophan Halogenase” (Chembiochem, 2016)

Tests used:
Experiment in all cases: steady-state chlorination kinetics
Format in all cases: biochemical, Streptomyces toxytricini
Settings in all cases: wild type; kinetic assay conditions not given
[1] = substrate: NC(=O)c1ccccc1N
Text: (§1) steady-state chlorination kinetics on SttH

[2] = substrate: N[C@@H](Cc1c[nH]c2ccccc12)C(=O)O
Text: as §1

[3] = substrate: Nc1ccccc1C(=O)C[C@H](N)C(=O)O
Text: as §1

B1: SttH (Streptomyces toxytricini) (protein)
chain: MNTRNPDKVVIVGGGTAGWMTASYLKKAFGERVSVTLVESGTIGTVGVGEATFSDIRHFFEFLDLREEEWMPACNATYKLAVRFQDWQRPGHHFYHPFEQMRSVDGFPLTDWWLQNGPTDRFDRDCFVMASLCDAGRSPRYLNGSLLQQEFDERAEEPAGLTMSEHQGKTQFPYAYHFEAALLAEFLSGYSKDRGVKHVVDEVLEVKLDDRGWISHVVTKEHGDIGGDLFVDCTGFRGVLLNQALGVPFVSYQDTLPNDSAVALQVPLDMEARGIPPYTRATAKEAGWIWTIPLIGRIGTGYVYAKDYCSPEEAERTLREFVGPEAADVEANHIRMRIGRSEQSWKNNCVAIGLSSGFVEPLESTGIFFIHHAIEQLVKHFPAGDWHPQLRAGYNSAVANVMDGVREFLVLHYLGAARNDTRYWKDTKTRAVPDALAERIERWKVQLPDSENVFPYYHGLPPYSYMAILLGTGAIGLRPSPALALADPAAAEKEFTAIRDRARFLVDTLPSQYEYFAAMGQRV
notes: wild type, purified recombinant from E. coli; dimer in crystal
- Km [1]: 1075 ± 154 µM
- kcat [1]: 0.0202 ± 0.000667 s⁻¹
- kcat/Km [1]: 18.3 ± 2.83 M⁻¹ s⁻¹
- Km [2]: 0.8 ± 0.1 µM
- kcat [2]: 0.0108 ± 0.000333 s⁻¹
- kcat/Km [2]: 13700 ± 1580 M⁻¹ s⁻¹
- Km [3]: 241 ± 32 µM
- kcat [3]: 0.0085 ± 0.000333 s⁻¹
- kcat/Km [3]: 35 ± 5 M⁻¹ s⁻¹
